Measured values as given in paper PMC11931385, “Structural and functional analysis of cancer-associated missense variants in the retinoblastoma protein pocket domain” (The Journal of Biological Chemistry, 2025).
No end group written: not given here. TMR = tetramethyl rhodamine dye

How the values were obtained:
Experiment in all cases: fluorescence polarisation; 37 °C, after the 25 °C reading ramped over 7 min to 37 °C and 2 min incubation; unlabeled Rb^P against 1.5 nM TMR-E2F1^TD or 7.5 nM TMR-E7^LxCxE; 25 mM Tris pH 8.0, 200 mM NaCl, 1 mM DTT, 0.1% Tween-20; apparent Kd
Details in all cases: both partners purified
Rb^P A490V = molecular target: T1, Rb^P A490V (human, UniProt P06400 380-788, A490V)
T1 construct: also called variant 17
T1 sequence (looked up): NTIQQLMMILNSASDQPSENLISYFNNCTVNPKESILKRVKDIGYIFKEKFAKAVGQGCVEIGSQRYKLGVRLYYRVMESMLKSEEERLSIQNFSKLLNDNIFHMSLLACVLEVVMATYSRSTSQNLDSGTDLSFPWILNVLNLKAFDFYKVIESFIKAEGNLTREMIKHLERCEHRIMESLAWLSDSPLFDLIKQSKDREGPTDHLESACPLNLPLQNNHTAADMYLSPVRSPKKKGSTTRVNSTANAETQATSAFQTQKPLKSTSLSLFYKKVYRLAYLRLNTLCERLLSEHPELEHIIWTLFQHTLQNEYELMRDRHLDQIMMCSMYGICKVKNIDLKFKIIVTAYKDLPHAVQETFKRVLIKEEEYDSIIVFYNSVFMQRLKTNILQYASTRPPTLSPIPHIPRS

Rb^P S474N = molecular target: T2, Rb^P S474N (human, UniProt P06400 380-788, S474N)
T2 construct: also called variant 12
T2 sequence (looked up): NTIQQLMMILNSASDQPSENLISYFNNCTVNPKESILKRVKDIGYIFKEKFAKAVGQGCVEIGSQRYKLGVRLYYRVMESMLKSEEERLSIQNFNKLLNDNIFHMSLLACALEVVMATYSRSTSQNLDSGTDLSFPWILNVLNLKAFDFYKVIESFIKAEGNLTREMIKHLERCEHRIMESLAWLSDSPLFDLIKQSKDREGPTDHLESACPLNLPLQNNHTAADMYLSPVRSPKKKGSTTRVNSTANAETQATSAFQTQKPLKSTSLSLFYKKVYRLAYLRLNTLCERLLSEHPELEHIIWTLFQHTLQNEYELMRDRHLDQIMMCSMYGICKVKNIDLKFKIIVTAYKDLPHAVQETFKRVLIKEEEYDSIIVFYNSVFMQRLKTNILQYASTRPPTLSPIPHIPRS

Rb^P R556Q = molecular target: T3, Rb^P R556Q (human, UniProt P06400 380-788, R556Q)
T3 construct: also called variant 30
T3 sequence (looked up): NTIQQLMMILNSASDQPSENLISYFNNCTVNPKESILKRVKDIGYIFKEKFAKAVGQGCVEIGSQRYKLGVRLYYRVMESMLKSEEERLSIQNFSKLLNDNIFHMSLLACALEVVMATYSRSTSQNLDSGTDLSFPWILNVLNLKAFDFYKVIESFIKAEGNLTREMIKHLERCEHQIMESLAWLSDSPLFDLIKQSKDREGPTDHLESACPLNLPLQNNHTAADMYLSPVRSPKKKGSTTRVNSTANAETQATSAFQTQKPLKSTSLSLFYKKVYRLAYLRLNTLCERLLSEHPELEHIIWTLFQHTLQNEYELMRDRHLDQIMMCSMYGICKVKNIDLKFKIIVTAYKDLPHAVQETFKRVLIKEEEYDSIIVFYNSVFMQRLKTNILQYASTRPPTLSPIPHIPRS

Rb^P T687I = molecular target: T4, Rb^P T687I (human, UniProt P06400 380-788, T687I)
T4 construct: also called variant 59
T4 sequence (looked up): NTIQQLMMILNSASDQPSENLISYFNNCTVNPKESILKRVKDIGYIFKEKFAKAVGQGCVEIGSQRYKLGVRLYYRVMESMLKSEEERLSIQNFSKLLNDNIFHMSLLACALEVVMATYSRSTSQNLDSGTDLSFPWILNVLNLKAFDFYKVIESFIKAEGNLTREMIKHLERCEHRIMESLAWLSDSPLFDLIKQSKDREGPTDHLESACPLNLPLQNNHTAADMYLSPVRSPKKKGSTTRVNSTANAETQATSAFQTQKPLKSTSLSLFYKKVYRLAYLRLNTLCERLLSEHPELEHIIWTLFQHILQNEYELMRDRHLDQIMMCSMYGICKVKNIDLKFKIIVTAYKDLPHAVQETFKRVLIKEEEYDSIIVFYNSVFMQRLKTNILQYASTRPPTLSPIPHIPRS

Rb^P H686Y = molecular target: T5, Rb^P H686Y (human, UniProt P06400 380-788, H686Y)
T5 construct: also called variant 58
T5 sequence (looked up): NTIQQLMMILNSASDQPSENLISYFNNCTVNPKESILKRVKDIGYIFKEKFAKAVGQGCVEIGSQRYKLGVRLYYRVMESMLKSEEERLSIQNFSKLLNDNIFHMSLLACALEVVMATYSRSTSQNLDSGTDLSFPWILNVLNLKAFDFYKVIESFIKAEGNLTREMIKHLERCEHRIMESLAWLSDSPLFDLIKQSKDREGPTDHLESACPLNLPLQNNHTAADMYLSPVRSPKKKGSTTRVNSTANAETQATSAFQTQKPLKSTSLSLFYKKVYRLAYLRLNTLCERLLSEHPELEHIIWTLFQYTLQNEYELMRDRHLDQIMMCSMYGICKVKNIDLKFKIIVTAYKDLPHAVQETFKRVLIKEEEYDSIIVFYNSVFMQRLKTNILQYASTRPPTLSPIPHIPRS

B1: TMR-E2F1^TD, peptide of the E2F1 transactivation domain (peptide)
peptide: {TMR}-GEGIRDLFDCDFGDLTPLD
notes: also called E2F^TD; source: synthetic peptide, bought: GenScript
Q: Which Kd (Rb^P A490V) does the source give for B1 here?
A: 87 nM

Q: And the Kd (Rb^P S474N)?
A: 26 nM

Q: What about the Kd (Rb^P R556Q) of the same binder?
A: 48 nM

Q: What about the Kd (Rb^P T687I) of the same binder?
A: 40 nM

Q: What about the Kd (Rb^P H686Y) of the same binder?
A: 35 nM

B2: TMR-E7^LxCxE, LxCxE peptide of the E7 oncoprotein from HPV (peptide)
peptide: DLYCYEQLN
modifications: also: TMR label, position not given here
notes: source: synthetic peptide, bought: GenScript
Q: For B2, which Kd (Rb^P A490V) is on record?
A: 33 nM

Q: What about the Kd (Rb^P S474N) of the same binder?
A: 13 nM

Q: What about the Kd (Rb^P R556Q) of the same binder?
A: 13 nM

Q: What about the Kd (Rb^P T687I) of the same binder?
A: 29 nM

Q: What about the Kd (Rb^P H686Y) of the same binder?
A: 14 nM
